Series [1] in a line: Hydrodynamic diameter by dynamic light scattering (DLS). Type of series: physicochemical. The arrangement: Stability: key to the marks not given beside the values. The procedure:
Characterization of the size of iTEPB-pOVA and iTEPB-iTEPA-pOVA fusions. The particle size distribution of the iTEP fusions was determined by dynamic light scattering (DLS) using a Zetasizer Nano-ZS instrument (Malvern Instruments, Malvern, UK) as previously described.^(29) The fusions were prepared at 5 μM and 25 μM in PBS and equilibrated at 37° C. for the measurement. The reported results represented the average particle size by number.
Dynamic light scattering (DLS) measurement. The measurement was carried out as previously described. iTEP, iTEP-MPBH-ABA-Sali conjugate, or PTX NP were measured at 25 μM in PBS at 37° C. using a Malvern Zetasizer Nano system (Malvern, Chester County, PA, USA).
Characterization of hydrodynamic diameters of iTEP-vaccine fusions. Hydrodynamic diameters of iTEP-vaccine fusions were determined by dynamic light scattering (DLS) using a Zetasizer Nano-ZS instrument (Malvern Instruments, Malvern, UK) as previously described (Zhao et al., Mol Pharm, 2014; 11(8):2703-12). The samples were resuspended at concentrations of 5, 25, 50, and 100 μM in PBS and sat at room temperature overnight before measurement. Some samples were kept in 5% C02 at 37° C. for 16 h before DLS measurement. Hydrodynamic diameter results of the sample of 5 μM concentration were reported because they were not affected by the used sample concentrations. Hydrodynamic diameters were presented using the size-by-number distribution approach. Z-average values and sizes-by-intensity data, however, were also reported.

The next series relates to DC2.4 cells. The experiment in a line: Presentation of the CTL epitope […] by DCs (flow cytometry). Type of series: cell-based, murine. The settings on record: 16 h incubation with DC2.4 cells. The procedure:
Presentation of the CTL epitope, […], by DCs. Cells of a murine DC line (DC2.4, a gift from K. Rock)^(32) were plated at 2.5×10^5/500 μL/well in 24-well plates. 500 μL of OVA, […] peptide (SEQ ID NO: 22), or iTEPB-iTEPA-pOVA NP (SEQ ID NO: 56) (iTEP-pOVA NP hereafter) were dissolved in cell culture media and added to the wells containing DCs. The cells were further cultured for 16 hrs. at 37° C. with 5% CO2 before they were collected and washed with PBS. The MHC class I complex, H-2kb/[…] presented on DC surface was stained with a PE-tagged monoclonal antibody 25-D1.16 (Biolegend, 1:100 dilution) and quantified with flow cytometry (5×10^4 events collected per sample). The data are presented as MFI normalized to the MFI of untreated DC2.4 cells.
Presentation of […] epitope vaccine by DCs. The presentation was studied as previously described (Cho et al., J Drug Target, 2015; p 1-12). The concentration of iTEP-vaccine fusions (NPs) used in this experiment was 5 μM. The results of presentation were shown as mean fluorescence intensity (MFI) of 5000 treated, live cells in a given treatment, which were normalized to the MFI value of untreated DC2.4 cells.

In a further series the test system is B3Z cells. The experiment in a line: B3Z CD8+ T cell hybridoma activation assay. Type of series: cell-based. To be noted: for activation of B3Z cells: DC2.4 cells pre-incubated with antigen. The method, then:
B3Z CD8+ T cell hybridoma activation assay. B3Z cells (a gift from N. Shastri) are a CD8+ T-cell hybridoma engineered to secrete β-galactosidase when their T-cell receptors are engaged with an […]:H2K^b complex.^(33) To do this assay, 1×10^5 DC2.4 cells/well were set in 96-well plates. OVA, […] peptide (SEQ ID NO: 22), and iTEP-pOVA NP (SEQ ID NO: 56) at indicated concentrations were loaded into the cell culture for 16 hours and then washed away. 1×10^5 B3Z cells/well were added to the DC2.4 cell culture and co-cultured with DC2.4 cells for 24 hours. The cells were washed with PBS before 100 μL of lysis buffer (PBS with 100 mM 2-mercaptoethanol, 9 mM MgCl2, 0.125% NP-40) together with 0.15 mM chlorophenol red β-galactoside were added into the wells. After the plates were incubated at 37° C. for 4 hours, the reaction was stopped with 50 μL/well of 15 mM EDTA and 300 mM glycine. The OD at 570 nm was measured and the OD at 630 nm was used as reference. The OD was used as an indicator as activation status of B3Z cells.
Activation of B3Z hybridoma (CD8+T) cells. This assay was done with a protocol described previously (Cho et al., J Drug Target, 2015; p 1-12).

A further series has as its system C57BL/6 mice. The experiment in a line: In vivo CTL response by ELISPOT IFN-γ assay. To be noted: for SIINFEKL-specific CTL response in vivo: immunized C57BL/6 mice, ELISPOT. The arrangement: species or system mouse. The text has this: in vivo CTL response by ELISPOT IFN-γ assay. C57BL/6 mice were immunized subcutaneously with each immunogen (2 nmol […] equivalents per mouse) together with incomplete Freunds Adjuvants (IFA; Sigma, USA) at their left flanks. The immunization was repeated at their right flanks 1 week later. At 10 days after the second immunization, mice were sacrificed, and the spleens were harvested. The spleens of the sacrificed mice were teased into single-cell suspensions and filtered through nylon mesh […]. Red blood cells were lysed by Ammonium-Chloride-Potassium (ACK) lysing buffer. The washed and resuspended single cells were counted using Contess™ Automated Cell Counter (Invitrogen, USA). Splenocytes (8×10^6/mL) were incubated in RPMI-1640 medium supplemented with 10% heat inactivated fetal calf serum, 2 mM glutamine, 100 units/mL penicillin and 100 μg/mL streptomycin (Invitrogen, USA), in a 14 mL polypropylene tissue culture tube for 48 hours, with or without […] peptide (SEQ ID NO: 22) (2.5 μg/mL). The cells were then washed and recounted. 2×10^5 live cells in 100 μL medium were then loaded into wells of 96-well Filtration plates (Millipore, USA) coated with […] of capture anti-mouse IFN-γ mAb (Clone: R4-6A2, Biolegend, USA). Triplicates were set up for each condition. Cells were discarded after 24 hours of culture and the wells were incubated with […] of detectionbiotinylated, anti-mouse IFN-γ mAb overnight (Clone: XMG1.2-Biotin, Biolegend, USA). After the unbound antibodies were washed away from the wells, the bound antibodies were detected using horseradish peroxidase (HRP Avidin, Biolegend, USA) together with 3-amino-9-ethyl-carbazole (AEC) substrate (Sigma, USA). The membranes on the bottom of the wells were peeled off, and color spots on the membrane were scanned. The spots were automatically counted using ImageJ software.
Animal immunization. C57BL/6 mice were immunized by the subcutaneous injection of 2 nmol iTEP NP vaccines and incomplete Freunds Adjuvants (IFA; Sigma, USA) at their left flanks. Immunization was repeated at their right flanks after 1 week. On day 10 after the second immunization, mice were sacrificed, and the spleens were harvested.

Setting [2] is: after 16 h incubation in 5% CO2 at 37° C.
The mark [3] stands for this setting: after the 16 h incubation at 37° C.
Setting [4] is: after 16 h incubation at 37° C.

B1: G(GAGVPG)70G(GVLPGVG)28G(ESIINFEKLT)2GG (protein)
chain: GGAGVPGGAGVPGGAGVPGGAGVPGGAGVPGGAGVPGGAGVPGGAGVPGGAGVPGGAGVPGGAGVPGGAGVPGGAGVPGGAGVPGGAGVPGGAGVPGGAGVPGGAGVPGGAGVPGGAGVPGGAGVPGGAGVPGGAGVPGGAGVPGGAGVPGGAGVPGGAGVPGGAGVPGGAGVPGGAGVPGGAGVPGGAGVPGGAGVPGGAGVPGGAGVPGGAGVPGGAGVPGGAGVPGGAGVPGGAGVPGGAGVPGGAGVPGGAGVPGGAGVPGGAGVPGGAGVPGGAGVPGGAGVPGGAGVPGGAGVPGGAGVPGGAGVPGGAGVPGGAGVPGGAGVPGGAGVPGGAGVPGGAGVPGGAGVPGGAGVPGGAGVPGGAGVPGGAGVPGGAGVPGGAGVPGGAGVPGGAGVPGGAGVPGGAGVPGGAGVPGGESIINFEKLTESIINFEKLTGG
Turning to B1, in series [1] (5 μM in PBS, 37° C., by number), the “mean diameter (DLS)” value came to 81.2±14.2 nm. In addition, in series [1] (25 μM in PBS, 37° C., by number), the “mean diameter / size (DLS)” value is 71.9±20.8 nm. The “hydrodynamic diameter by number distribution” value in series [1] (setting [2]) amounted to 8.39±1.20 nm. For the same molecule, the Z-average in series [1] (setting [3]) amounted to 422.90 nm. The “hydrodynamic diameter by number distribution” value in series [1] (before incubation (0 h), 5 μM) worked out at 71.94±20.81 nm. The Z-average in series [1] (before the incubation) was 101.00 nm. For the same molecule, the “hydrodynamic diameter by intensity” value in series [1] (before the incubation (0 h)) came out at 111.90±35.02 nm. Besides, in the series on DC2.4 cells, the “presentation of SIINFEKL by DCs” value is listed as “significantly more”. In addition, in the series on B3Z cells, the “B3Z activity, fold more active than DC-treated B3Z cells” value stood at 4.38 fold; the “B3Z activity, fold more active than OVA/DC-treated B3Z cells” value came to 3.81 fold; the “B3Z activity, fold more active than iTEPB-pOVA/DC-treated B3Z cells” value is on record as 2.9 fold. For the same molecule, the “SIINFEKL-restricted activated splenocytes (INF-γ ELISPOT)” value with C57BL/6 mice (subcutaneous immunization twice, 2 nmol SIINFEKL equivalents per mouse with IFA) was 105 spots per million seeded splenocytes.

B2: RED-NP: reductive-environment dependable NP, disulfide stabilized fusion iTEPB70-iTEPA28-(G8C)4-pOVA (SEQ ID NO: 61) (protein)
chain: GGAGVPGGAGVPGGAGVPGGAGVPGGAGVPGGAGVPGGAGVPGGAGVPGGAGVPGGAGVPGGAGVPGGAGVPGGAGVPGGAGVPGGAGVPGGAGVPGGAGVPGGAGVPGGAGVPGGAGVPGGAGVPGGAGVPGGAGVPGGAGVPGGAGVPGGAGVPGGAGVPGGAGVPGGAGVPGGAGVPGGAGVPGGAGVPGGAGVPGGAGVPGGAGVPGGAGVPGGAGVPGGAGVPGGAGVPGGAGVPGGAGVPGGAGVPGGAGVPGGAGVPGGAGVPGGAGVPGGAGVPGGAGVPGGAGVPGGAGVPGGAGVPGGAGVPGGAGVPGGAGVPGGAGVPGGAGVPGGAGVPGGAGVPGGAGVPGGAGVPGGAGVPGGAGVPGGAGVPGGAGVPGGAGVPGGAGVPGGAGVPGGAGVPGGAGVPGGAGVPGGGVLPGVGGVLPGVGGVLPGVGGVLPGVGGVLPGVGGVLPGVGGVLPGVGGVLPGVGGVLPGVGGVLPGVGGVLPGVGGVLPGVGGVLPGVGGVLPGVGGVLPGVGGVLPGVGGVLPGVGGVLPGVGGVLPGVGGVLPGVGGVLPGVGGVLPGVGGVLPGVGGVLPGVGGVLPGVGGVLPGVGGVLPGVGGVLPGVGGCGCGCGCGESIINFEKLTESIINFEKLTGG
As to B2, the “hydrodynamic diameter by intensity” value is listed as 70.99±17.52 nm in series [1] (setting [4]) and 75.55±15.32 nm in series [1] (before the incubation (0 h)). Besides, the “hydrodynamic diameter by number distribution” value in series [1] (setting [2]) turned out to be 53.05±12.38 nm; in series [1] (before incubation (0 h), 5 μM), 61.94±12.71 nm. The figures for the Z-average in series [1] (setting [3]) and in series [1] (before the incubation) were 76.89 nm and 87.59 nm, respectively. In the series on DC2.4 cells, the “presentation of SIINFEKL by DCs” value is reported as “significantly better than that of the ST-NP”. Further, in the series with B3Z cells, the “activation of B3Z cells” value was “failed to activate B3Z cells as effectively as the MS-NP but, again, fared better than the ST-NP”. The “SIINFEKL-specific CTL response in vivo” value in the series with C57BL/6 mice was “outperformed the MS-NP and induced stronger CTL responses”.

B3: ST-NP: stable NP of the fusion iTEPB70-iTEPA56-pOVA (SEQ ID NO: 60) (protein)
chain: GGAGVPGGAGVPGGAGVPGGAGVPGGAGVPGGAGVPGGAGVPGGAGVPGGAGVPGGAGVPGGAGVPGGAGVPGGAGVPGGAGVPGGAGVPGGAGVPGGAGVPGGAGVPGGAGVPGGAGVPGGAGVPGGAGVPGGAGVPGGAGVPGGAGVPGGAGVPGGAGVPGGAGVPGGAGVPGGAGVPGGAGVPGGAGVPGGAGVPGGAGVPGGAGVPGGAGVPGGAGVPGGAGVPGGAGVPGGAGVPGGAGVPGGAGVPGGAGVPGGAGVPGGAGVPGGAGVPGGAGVPGGAGVPGGAGVPGGAGVPGGAGVPGGAGVPGGAGVPGGAGVPGGAGVPGGAGVPGGAGVPGGAGVPGGAGVPGGAGVPGGAGVPGGAGVPGGAGVPGGAGVPGGAGVPGGAGVPGGAGVPGGAGVPGGAGVPGGAGVPGGGVLPGVGGVLPGVGGVLPGVGGVLPGVGGVLPGVGGVLPGVGGVLPGVGGVLPGVGGVLPGVGGVLPGVGGVLPGVGGVLPGVGGVLPGVGGVLPGVGGVLPGVGGVLPGVGGVLPGVGGVLPGVGGVLPGVGGVLPGVGGVLPGVGGVLPGVGGVLPGVGGVLPGVGGVLPGVGGVLPGVGGVLPGVGGVLPGVGGGGGGGGGCGGGGGGGGCGGGGGGGGCGGGGGGGGCGESIINFEKLTESIINFEKLTGG
Consider B3, for which the Stability entry in series [1] was “++”. In addition, the “hydrodynamic diameter by intensity” value is recorded as 74.45±18.99 nm in series [1] (setting [4]) and 78.56±21.60 nm in series [1] (before the incubation (0 h)). Besides, the “hydrodynamic diameter by number distribution” value is 55.36±12.88 nm in series [1] (setting [2]) and 56.01±13.54 nm in series [1] (before incubation (0 h), 5 μM). Moreover, the Z-average in series [1] (setting [3]) came to 70.42 nm; in series [1] (before the incubation), 74.59 nm. In addition, in the series with DC2.4 cells, the “presentation of SIINFEKL by DCs” value is reported as “significantly weaker presentation than the MS-NP”. The “activation of B3Z cells” value in the series with B3Z cells is recorded as “much less robust in activating B3Z cells than the MS-NP”. In addition, in the series with C57BL/6 mice, the “SIINFEKL-specific CTL response in vivo” value is “significantly weaker than the one elicited by the MS-NP”.

The record behind these values is patent publication US11957762B2, “Immune tolerant and non-immune tolerant elastin-like recombinant peptides and methods of use” (University of Utah Research Foundation, priority 2015, dated 2024).
